The data set concerns the target T1, His6-LexA (Streptomyces mobaraensis NBRC 13819) (UniProt A0A5N5W758).
T1 sequence: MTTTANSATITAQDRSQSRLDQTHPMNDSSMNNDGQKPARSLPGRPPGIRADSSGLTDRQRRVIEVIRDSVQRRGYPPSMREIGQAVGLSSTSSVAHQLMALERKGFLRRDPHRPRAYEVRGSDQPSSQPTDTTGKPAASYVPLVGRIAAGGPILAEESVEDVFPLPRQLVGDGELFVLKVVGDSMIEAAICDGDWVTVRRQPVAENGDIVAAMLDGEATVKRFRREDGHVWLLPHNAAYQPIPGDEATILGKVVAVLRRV
Description: EMSA. The conditions noted are these: EMSA: 0, 100, 200 ng His6-LexA, 25 nM probe, 20 uL; 30 mM KCl, 10 mM Tris-HCl (pH not stated), 0.4 mM DTT, 2 mM MgCl2, 0.2 mM EDTA, 2% glycerol; 30 min, 30 C …. In general terms: A gel shift assay detects complexes by their altered migration in electrophoresis.

With “CAGGCTGGTACTGATCGTCACCTGCGCGATTGGCGAGACACCTGCTGAGCAGACCGCCGCGGACCATCTCGGACACCTGCCCGACCGCTGCATTCGCCAACCGCCTCCGCACTCTCAACGACG (double strand) [Probe whiB (123 bp)]”, the binding result was “binds”.

Consider “CGGTGTGGAAGGTGGCGTGTACGGCATACGGATCGGAAGTGTCGTACCGCAGACCTGCGGGTACAGGCAGTGACGATTCGCTCGACACAACGAGGCGCAGGTGCAG (double strand) [Probe ssgA (106 bp)]”, for which the binding result was “binds”.

In the case of “GAAAAGCGAACCAATTGGAATGTGGGGCCGGAACGGGAGGTCAGGCGTTCGACGTCACACTCCGCAGGGTACCGCTCACAGCCCGAAGCGGCGCTGGAGGTCTCCCAACTG (double strand) [Probe marR1 (112 bp)]”, the binding entry was “binds”.

The record behind these values is PMC11157053.
